# Laboratory results reported in patent US20260242419A1, “A CYCLIC PEPTIDE FOR TRAPPING INTERLEUKIN-1 BETA” (Merck Sharp & Dohme LLC, priority 2023, published 2026).
# Starred links: 1 amine or outer side, 2 acyl side, 3 side chain; linkers in the order of their positions; H or OH if unused. Non-standard residues stand in square brackets, D forms with d. TyrEtNAc = (2S)-3-[4-(2-acetamidoethoxy)phenyl]-2-amino-propanoic acid, CC(=O)NCCOc1ccc(C[C@H](N[*:1])C(=O)[*:2])cc1; dPro(4R-(4-pyridylmethyl)) = O=C(O)[C@H]1C[C@@H](Cc2ccncc2)CN1; Trp(βS-Me,4-F) = C[C@@H](c1c[nH]c2cccc(F)c12)[C@H](N)C(=O)O; 3Aminoazetidine3carboxyl = O=C(C1(N[*:1])CN([*:3])C1)[*:2]; Bip(4'-COOH) = N[C@@H](Cc1ccc(-c2ccc(C(=O)O)cc2)cc1)C(=O)O; dPro(4R-Bzl(4-F)) = O=C(O)[C@H]1C[C@@H](Cc2ccc(F)cc2)CN1; Ala(pyrimidin-5-yl) = N[C@@H](Cc1cncnc1)C(=O)O; Phe(4-COOH) = N[C@@H](Cc1ccc(C(=O)O)cc1)C(=O)O; Pro(cis-4-F) = O=C(O)[C@@H]1C[C@H](F)CN1; 4Pal = N[C@@H](Cc1ccncc1)C(=O)O; d(αMeS) = C[C@@](N)(CO)C(=O)O; αMeS = C[C@](N)(CO)C(=O)O; Dab = NCC[C@H](N)C(=O)O; Aib = CC(C)(N)C(=O)O
# B1: SEQ ID NO: 2 (peptide)
# peptide: cyclo([Bip(4'-COOH)][4Pal][Phe(4-COOH)]G[Pro(cis-4-F)][Trp(βS-Me,4-F)][Aib]EW[Aib][4Pal]Q[Dab]G[dPro(4R-Bzl(4-F))])
# SMILES: C[C@@H](c1c[nH]c2cccc(F)c12)[C@@H]1NC(=O)[C@@H]2C[C@H](F)CN2C(=O)CNC(=O)[C@H](Cc2ccc(C(=O)O)cc2)NC(=O)[C@H](Cc2ccncc2)NC(=O)[C@H](Cc2ccc(-c3ccc(C(=O)O)cc3)cc2)NC(=O)[C@H]2C[C@@H](Cc3ccc(F)cc3)CN2C(=O)CNC(=O)[C@H](CCN)NC(=O)[C@H](CCC(N)=O)NC(=O)[C@H](Cc2ccncc2)NC(=O)C(C)(C)NC(=O)[C@H](Cc2c[nH]c3ccccc23)NC(=O)[C@H](CCC(=O)O)NC(=O)C(C)(C)NC1=O
# B2: SEQ ID NO: 15 (peptide)
# peptide: cyclo([Bip(4'-COOH)][4Pal][Phe(4-COOH)]G[Pro(cis-4-F)][Trp(βS-Me,4-F)][Aib]EW[Aib][4Pal]Q[Dab]G[dPro(4R-(4-pyridylmethyl))])
# SMILES: C[C@@H](c1c[nH]c2cccc(F)c12)[C@@H]1NC(=O)[C@@H]2C[C@H](F)CN2C(=O)CNC(=O)[C@H](Cc2ccc(C(=O)O)cc2)NC(=O)[C@H](Cc2ccncc2)NC(=O)[C@H](Cc2ccc(-c3ccc(C(=O)O)cc3)cc2)NC(=O)[C@H]2C[C@@H](Cc3ccncc3)CN2C(=O)CNC(=O)[C@H](CCN)NC(=O)[C@H](CCC(N)=O)NC(=O)[C@H](Cc2ccncc2)NC(=O)C(C)(C)NC(=O)[C@H](Cc2c[nH]c3ccccc23)NC(=O)[C@H](CCC(=O)O)NC(=O)C(C)(C)NC1=O
# B3: SEQ ID NO: 18 (peptide)
# peptide: cyclo([Bip(4'-COOH)][4Pal][Phe(4-COOH)]G[Pro(cis-4-F)][Trp(βS-Me,4-F)][Aib]EW[αMeS][Ala(pyrimidin-5-yl)]Q[Dab]G[dPro(4R-Bzl(4-F))])
# SMILES: C[C@@H](c1c[nH]c2cccc(F)c12)[C@@H]1NC(=O)[C@@H]2C[C@H](F)CN2C(=O)CNC(=O)[C@H](Cc2ccc(C(=O)O)cc2)NC(=O)[C@H](Cc2ccncc2)NC(=O)[C@H](Cc2ccc(-c3ccc(C(=O)O)cc3)cc2)NC(=O)[C@H]2C[C@@H](Cc3ccc(F)cc3)CN2C(=O)CNC(=O)[C@H](CCN)NC(=O)[C@H](CCC(N)=O)NC(=O)[C@H](Cc2cncnc2)NC(=O)[C@](C)(CO)NC(=O)[C@H](Cc2c[nH]c3ccccc23)NC(=O)[C@H](CCC(=O)O)NC(=O)C(C)(C)NC1=O
# B4: SEQ ID NO: 17 (peptide)
# peptide: cyclo([Bip(4'-COOH)][4Pal][Phe(4-COOH)]G[Pro(cis-4-F)][Trp(βS-Me,4-F)][Aib]DW[Aib][Ala(pyrimidin-5-yl)]Q[Dab]G[dPro(4R-Bzl(4-F))])
# SMILES: C[C@@H](c1c[nH]c2cccc(F)c12)[C@@H]1NC(=O)[C@@H]2C[C@H](F)CN2C(=O)CNC(=O)[C@H](Cc2ccc(C(=O)O)cc2)NC(=O)[C@H](Cc2ccncc2)NC(=O)[C@H](Cc2ccc(-c3ccc(C(=O)O)cc3)cc2)NC(=O)[C@H]2C[C@@H](Cc3ccc(F)cc3)CN2C(=O)CNC(=O)[C@H](CCN)NC(=O)[C@H](CCC(N)=O)NC(=O)[C@H](Cc2cncnc2)NC(=O)C(C)(C)NC(=O)[C@H](Cc2c[nH]c3ccccc23)NC(=O)[C@H](CC(=O)O)NC(=O)C(C)(C)NC1=O
# B5: SEQ ID NO: 14 (peptide)
# peptide: cyclo([Bip(4'-COOH)][4Pal][Phe(4-COOH)]G[Pro(cis-4-F)][Trp(βS-Me,4-F)][Aib]EW[Aib][Ala(pyrimidin-5-yl)]Q[Dab]G[dPro(4R-(4-pyridylmethyl))])
# SMILES: C[C@@H](c1c[nH]c2cccc(F)c12)[C@@H]1NC(=O)[C@@H]2C[C@H](F)CN2C(=O)CNC(=O)[C@H](Cc2ccc(C(=O)O)cc2)NC(=O)[C@H](Cc2ccncc2)NC(=O)[C@H](Cc2ccc(-c3ccc(C(=O)O)cc3)cc2)NC(=O)[C@H]2C[C@@H](Cc3ccncc3)CN2C(=O)CNC(=O)[C@H](CCN)NC(=O)[C@H](CCC(N)=O)NC(=O)[C@H](Cc2cncnc2)NC(=O)C(C)(C)NC(=O)[C@H](Cc2c[nH]c3ccccc23)NC(=O)[C@H](CCC(=O)O)NC(=O)C(C)(C)NC1=O
# B6: SEQ ID NO: 21 (peptide)
# peptide: cyclo([Bip(4'-COOH)][4Pal][Phe(4-COOH)]G[Pro(cis-4-F)][Trp(βS-Me,4-F)][Aib]EW[3Aminoazetidine3carboxyl][Ala(pyrimidin-5-yl)]Q[Dab]G[dPro(4R-Bzl(4-F))])
# SMILES: C[C@@H](c1c[nH]c2cccc(F)c12)[C@@H]1NC(=O)[C@@H]2C[C@H](F)CN2C(=O)CNC(=O)[C@H](Cc2ccc(C(=O)O)cc2)NC(=O)[C@H](Cc2ccncc2)NC(=O)[C@H](Cc2ccc(-c3ccc(C(=O)O)cc3)cc2)NC(=O)[C@H]2C[C@@H](Cc3ccc(F)cc3)CN2C(=O)CNC(=O)[C@H](CCN)NC(=O)[C@H](CCC(N)=O)NC(=O)[C@H](Cc2cncnc2)NC(=O)C2(CNC2)NC(=O)[C@H](Cc2c[nH]c3ccccc23)NC(=O)[C@H](CCC(=O)O)NC(=O)C(C)(C)NC1=O
# B7: SEQ ID NO: 19 (peptide)
# peptide: cyclo([Bip(4'-COOH)][4Pal][Phe(4-COOH)]G[Pro(cis-4-F)][Trp(βS-Me,4-F)][d(αMeS)]EW[Aib][Ala(pyrimidin-5-yl)]Q[Dab]G[dPro(4R-Bzl(4-F))])
# SMILES: C[C@@H](c1c[nH]c2cccc(F)c12)[C@@H]1NC(=O)[C@@H]2C[C@H](F)CN2C(=O)CNC(=O)[C@H](Cc2ccc(C(=O)O)cc2)NC(=O)[C@H](Cc2ccncc2)NC(=O)[C@H](Cc2ccc(-c3ccc(C(=O)O)cc3)cc2)NC(=O)[C@H]2C[C@@H](Cc3ccc(F)cc3)CN2C(=O)CNC(=O)[C@H](CCN)NC(=O)[C@H](CCC(N)=O)NC(=O)[C@H](Cc2cncnc2)NC(=O)C(C)(C)NC(=O)[C@H](Cc2c[nH]c3ccccc23)NC(=O)[C@H](CCC(=O)O)NC(=O)[C@@](C)(CO)NC1=O
# Target: Recombinant human IL-1β (BioLegend 579404) (human, UniProt P01584 117-269)
# Assay: cell-based or functional assay
row,MRC5 IC50 [nM],Binder
1,0.023,B1
2,0.035,B2
3,0.027,B3
4,0.062,"cyclo([Bip(4'-COOH)][4Pal][Phe(4-COOH)]G[Pro(cis-4-F)][Trp(βS-Me,4-F)][3Aminoazetidine3carboxyl]EW[Aib][Ala(pyrimidin-5-yl)]Q[Dab]G[dPro(4R-Bzl(4-F))]) [SEQ ID NO: 20]"
5,0.029,B4
6,0.035,B5
7,0.04,B6
8,0.051,"cyclo([TyrEtNAc][4Pal][Phe(4-COOH)]G[Pro(cis-4-F)][Trp(βS-Me,4-F)][Aib]SW[Aib][Ala(pyrimidin-5-yl)]Q[Dab]G[dPro(4R-Bzl(4-F))]) [SEQ ID NO: 16]"
9,0.021,B7
10,0.027,"cyclo([Bip(4'-COOH)][4Pal][Phe(4-COOH)]G[Pro(cis-4-F)][Trp(βS-Me,4-F)][αMeS]EW[Aib][Ala(pyrimidin-5-yl)]Q[Dab]G[dPro(4R-Bzl(4-F))]) [SEQ ID NO: 22]"
